Laboratory results taken from the supplement of paper PMC10724198.
± gives the standard deviation of the averaged measurements.

System: Saccharomyces cerevisiae
Test: protein stability index of tFT-peptide fusion (C-terminal peptide) (PSI (0-1 scale)); higher = more stable (slower turnover)
Settings: genetic background: das1 deletion; temperature: 30 C
Method: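 MPS profiling in S. cerevisiae of the yeast C-terminome library: the last 12 aa of each annotated ORF are fused to the C-terminus of a sfGFP-mCherry timer, after a GGGS linker. Cells are FACS-sorted into 8 mCherry/sfGFP bins and deep-sequenced. PSI runs from 0 (unstable) to 1 (stable); wild type and das1Δ backgrounds, two technical replicates each.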

Row | Sequence | protein stability index
1 | QKRKSRILSFIK [UBP9 C-terminal 12 aa] | 0.7208 ± 0.006
2 | QLINGRKIIAGN [MOT2 C-terminal 12 aa] | 0.6718 ± 0.0014
3 | QLVKLQLVELKL [LAM5 C-terminal 12 aa] | 0.6108 ± 0.0024
4 | QMQQMAKQFGMG [SRP54 C-terminal 12 aa] | 0.6863 ± 0.0024
5 | QMSAMTEKFGKL [YKL068W-A C-terminal 12 aa] | 0.726 ± 0.0095
6 | QNEICQYDNTSP [YGR109W-B C-terminal 12 aa] | 0.7173 ± 0.0057
7 | QNLLSAYRMNHK [AVO1 C-terminal 12 aa] | 0.70387 ± 0.00067
8 | QQGGAGADQKTE [EMC10 C-terminal 12 aa] | 0.6815 ± 0.0066
9 | QQQQQQQQQQQQ [PUB1 C-terminal 12 aa] | 0.71 ± 0.029
10 | QVSLLLGFSSRS [MRX20 C-terminal 12 aa] | 0.698 ± 0.0012
11 | QYDYELIQVQCS [PPN2 C-terminal 12 aa] | 0.431 ± 0.043
12 | QYVLYKNEAGDK [AIM39 C-terminal 12 aa] | 0.689 ± 0.017
13 | RAVTKYSSSTQA [HTB1 C-terminal 12 aa] | 0.7067 ± 0.0046
14 | RDLFEIYQKMMQ [MUK1 C-terminal 12 aa] | 0.725 ± 0.02
15 | RDNQIPDKEIGI [CAF16 C-terminal 12 aa] | 0.6731 ± 0.0026
16 | REAKNLPKPSFL [EDC1 C-terminal 12 aa] | 0.70153 ± 0.00024
17 | RELLKSLVLSHR [RSM23 C-terminal 12 aa] | 0.703 ± 0.0085
18 | RFLDYVRELESF [PDX1 C-terminal 12 aa] | 0.698 ± 0.014
19 | RGSEHYTKRKKI [UBS1 C-terminal 12 aa] | 0.687 ± 0.022
20 | RIELSKYYNTNL [YPD1 C-terminal 12 aa] | 0.6986 ± 0.0043
21 | RIIEYFEEYQCW [FRE6 C-terminal 12 aa] | 0.712 ± 0.014

Row | Sequence | protein stability index
22 | RKEDDKRDTQEK [SOF1 C-terminal 12 aa] | 0.713 ± 0.024
23 | RKELEKGKKNSK [YLR363W-A C-terminal 12 aa] | 0.694 ± 0.025
24 | RKFVFNPPKPRK [CYT1 C-terminal 12 aa] | 0.691 ± 0.025
25 | RKYPNQCGTISN [EXG1 C-terminal 12 aa] | 0.712 ± 0.011
26 | RLQQVRKNPYPF [OPI7 C-terminal 12 aa] | 0.7357 ± 0.0072
27 | RLYDRINGKPHD [MRP10 C-terminal 12 aa] | 0.671 ± 0.014
28 | RNVYSTKTRCIE [TDA10 C-terminal 12 aa] | 0.681 ± 0.017
29 | RQDNNHNGSSNG [MET32 C-terminal 12 aa] | 0.6936 ± 0.0016
30 | RQFKEILTVKEE [RRP40 C-terminal 12 aa] | 0.6732 ± 0.0037
31 | RQNDKGAIKKSK [YEA4 C-terminal 12 aa] | 0.676 ± 0.019
32 | RRAAESGKLKME [YNL108C C-terminal 12 aa] | 0.693 ± 0.029
33 | RRDYWLSKGQAL [TRF5 C-terminal 12 aa] | 0.7173 ± 0.0032
34 | RREATRISDLLK [FMS1 C-terminal 12 aa] | 0.695 ± 0.014
35 | RRRASKNAFRGM [ENP2 C-terminal 12 aa] | 0.696 ± 0.02
36 | RSRKWKRRLFHL [PEX32 C-terminal 12 aa] | 0.825 ± 0.038
37 | RSRSINGDWRKD [PAN5 C-terminal 12 aa] | 0.6835 ± 0.0046
38 | RSTFLMHGRLAT [MAK3 C-terminal 12 aa] | 0.707 ± 0.02
39 | RVAVIEDDEDED [LEO1 C-terminal 12 aa] | 0.688 ± 0.0068
40 | RVGQTNSPSDSQ [DFM1 C-terminal 12 aa] | 0.706 ± 0.0087
41 | RVKILHRDDTKK [UPF3 C-terminal 12 aa] | 0.707 ± 0.024
42 | RWHIQRITSPLS [STP22 C-terminal 12 aa] | 0.74 ± 0.048

Row | Sequence | protein stability index
43 | RYKILDLIISKL [UTP6 C-terminal 12 aa] | 0.789 ± 0.042
44 | RYVIFQSCGLIL [MRX8 C-terminal 12 aa] | 0.657 ± 0.031
45 | SAQDSDIDLQDA [MCM7 C-terminal 12 aa] | 0.695 ± 0.0088
46 | SASSTPSSTTMS [SPT20 C-terminal 12 aa] | 0.682 ± 0.0019
47 | SCRTTPQVRARA [YLR279W C-terminal 12 aa] | 0.6944 ± 0.0046
48 | SDENIQPELRGQ [ABF1 C-terminal 12 aa] | 0.675 ± 0.018
49 | SEETKKSCCSGK [CUP1-1 C-terminal 12 aa] | 0.695 ± 0.01
50 | SEINDDFHQWAQ [DEP1 C-terminal 12 aa] | 0.727 ± 0.021
51 | SEIVDISQLPPG [ILV6 C-terminal 12 aa] | 0.6812 ± 0.0022
52 | SFDVELVGLKFV [YHL019W-A C-terminal 12 aa] | 0.7172 ± 0.005
53 | SFFCRSSSKSSK [YSC83 C-terminal 12 aa] | 0.7232 ± 0.0053
54 | SGFFSSLKTMFN [PAR32 C-terminal 12 aa] | 0.719 ± 0.027
55 | SGNNLGICFYKE [NUP170 C-terminal 12 aa] | 0.6733 ± 0.005
56 | SHYHMWPIKRII [YMR082C C-terminal 12 aa] | 0.6853 ± 0.0064
57 | SIDELETEISTW [BCP1 C-terminal 12 aa] | 0.718 ± 0.015
58 | SKEFVGSVYLNF [TRL1 C-terminal 12 aa] | 0.679 ± 0.009
59 | SKILFLCQINIS [YNR042W C-terminal 12 aa] | 0.312 ± 0.03
60 | SKIPSSLYIYHM [YGL042C C-terminal 12 aa] | 0.7073 ± 0.0067
61 | SKLNAVHTANEK [SEC8 C-terminal 12 aa] | 0.712 ± 0.016
62 | SLENVAMLVYKK [TRM13 C-terminal 12 aa] | 0.698 ± 0.048
63 | SLKPSEKKLYYL [NTH2 C-terminal 12 aa] | 0.721 ± 0.0073

Row | Sequence | protein stability index
64 | SLLGIQKSVRNL [MDM20 C-terminal 12 aa] | 0.691 ± 0.056
65 | SLNQPELINFKS [IZH4 C-terminal 12 aa] | 0.714 ± 0.017
66 | SLQKIDATYIRG [SDS22 C-terminal 12 aa] | 0.702 ± 0.017
67 | SLSSLSNQRCTT [YCR023C C-terminal 12 aa] | 0.709 ± 0.011
68 | SMGNYYKSFFSM [OMA1 C-terminal 12 aa] | 0.704 ± 0.02
69 | SNHECSQINLLE [YCL021W C-terminal 12 aa] | 0.695 ± 0.018
70 | SPTRKRPPPRLS [INN1 C-terminal 12 aa] | 0.726 ± 0.0049
71 | SQDDSILSSDPF [NIS1 C-terminal 12 aa] | 0.715 ± 0.015
72 | SQFVNDPFWANI [HIS2 C-terminal 12 aa] | 0.757 ± 0.031
73 | SQIRTPLVMLLM [YOR318C C-terminal 12 aa] | 0.651 ± 0.025
74 | SQPDYKYLFDTQ [YRM1 C-terminal 12 aa] | 0.71 ± 0.027
75 | SRIIIKAARGII [YOR082C C-terminal 12 aa] | 0.704 ± 0.042
76 | SRRFYRKIDHLA [YLR400W C-terminal 12 aa] | 0.699 ± 0.02
77 | SRVVLSQGDSDD [TOF1 C-terminal 12 aa] | 0.68424 ± 0.00057
78 | SSSSLYTESPIR [IGO1 C-terminal 12 aa] | 0.7011 ± 0.0054
79 | SSVVSIPLREIL [YNR048W C-terminal 12 aa] | 0.712 ± 0.016
80 | STITSMNPDTTK [VHS2 C-terminal 12 aa] | 0.711 ± 0.031
81 | STKATPTDLSKL [MLS1 C-terminal 12 aa] | 0.7565 ± 0.0027
82 | STTMNFNYQTKV [SDD1 C-terminal 12 aa] | 0.696 ± 0.011
